Data from US8642559.

What was measured:
[1] = biological target: GST fusion protein with mGluR1α Ile812 to Ser943 attached to the C-terminus of GST (UniProt P23385)
[2] = biological target: GST fusion protein with mGluR1α Asn889 to Leu1058 fused to the C-terminus of GST (UniProt P23385)
[3] = test system: spectrin in brain membranes
[4] = biological target: myc-mGluR1α (mGluR1α tagged with a c-myc epitope inserted in frame after Ala30) (UniProt P23385)
Chain of myc-mGluR1α (mGluR1α tagged with a c-myc epitope inserted in frame after Ala30) (P23385 other isoform, or with tags, fused parts or gaps): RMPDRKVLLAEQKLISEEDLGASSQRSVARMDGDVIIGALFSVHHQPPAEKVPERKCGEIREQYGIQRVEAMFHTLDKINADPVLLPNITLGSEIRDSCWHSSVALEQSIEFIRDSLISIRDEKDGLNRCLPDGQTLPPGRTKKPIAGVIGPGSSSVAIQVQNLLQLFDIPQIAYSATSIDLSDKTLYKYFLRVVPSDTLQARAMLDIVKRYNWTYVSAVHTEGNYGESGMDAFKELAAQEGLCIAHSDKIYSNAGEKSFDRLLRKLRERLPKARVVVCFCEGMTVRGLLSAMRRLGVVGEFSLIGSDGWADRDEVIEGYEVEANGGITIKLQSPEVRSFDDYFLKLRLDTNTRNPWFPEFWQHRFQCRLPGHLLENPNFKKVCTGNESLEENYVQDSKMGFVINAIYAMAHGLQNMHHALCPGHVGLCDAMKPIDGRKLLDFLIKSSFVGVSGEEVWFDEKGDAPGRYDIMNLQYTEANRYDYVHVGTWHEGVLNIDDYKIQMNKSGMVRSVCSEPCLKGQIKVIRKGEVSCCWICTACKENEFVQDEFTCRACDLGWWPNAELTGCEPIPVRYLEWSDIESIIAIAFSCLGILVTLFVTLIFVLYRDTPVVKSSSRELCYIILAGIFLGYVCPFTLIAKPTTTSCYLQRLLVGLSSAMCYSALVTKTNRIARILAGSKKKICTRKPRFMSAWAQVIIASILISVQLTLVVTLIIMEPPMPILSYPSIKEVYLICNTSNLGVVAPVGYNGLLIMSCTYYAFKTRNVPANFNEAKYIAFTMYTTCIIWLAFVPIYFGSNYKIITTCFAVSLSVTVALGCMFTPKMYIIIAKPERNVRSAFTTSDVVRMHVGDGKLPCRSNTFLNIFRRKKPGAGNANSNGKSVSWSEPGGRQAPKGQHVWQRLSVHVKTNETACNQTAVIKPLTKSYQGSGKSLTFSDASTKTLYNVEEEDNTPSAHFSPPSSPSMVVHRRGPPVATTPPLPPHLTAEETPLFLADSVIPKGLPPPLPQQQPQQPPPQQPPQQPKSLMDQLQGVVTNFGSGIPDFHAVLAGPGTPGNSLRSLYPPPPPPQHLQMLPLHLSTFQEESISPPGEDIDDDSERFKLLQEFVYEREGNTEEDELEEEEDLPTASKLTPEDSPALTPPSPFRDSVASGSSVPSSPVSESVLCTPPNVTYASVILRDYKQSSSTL

Chain of GST fusion protein with mGluR1α Asn889 to Leu1058 fused to the C-terminus of GST (P23385 889-1058): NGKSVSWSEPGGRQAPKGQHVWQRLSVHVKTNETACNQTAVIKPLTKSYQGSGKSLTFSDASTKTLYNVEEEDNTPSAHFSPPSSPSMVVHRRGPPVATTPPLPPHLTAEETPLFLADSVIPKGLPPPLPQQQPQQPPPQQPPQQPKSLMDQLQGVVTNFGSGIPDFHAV
Chain of GST fusion protein with mGluR1α Ile812 to Ser943 attached to the C-terminus of GST (P23385 812-943): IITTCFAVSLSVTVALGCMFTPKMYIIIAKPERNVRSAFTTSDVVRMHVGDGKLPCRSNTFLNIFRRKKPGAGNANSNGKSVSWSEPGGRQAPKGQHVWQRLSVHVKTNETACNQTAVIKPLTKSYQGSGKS

µ-calpain
digestion of the purified GST fusion protein with calpain in the presence of 2 mM CaCl2 [1]: The GST-mGluR1α fusion protein became about 2 kD smaller after digestion
digestion of the GST fusion protein with calpain, Edman sequencing [2]: after digestion with calpain, this fusion protein generated a 10 kD fragment
truncation in brain membranes treated with purified calpain and calcium [3]: truncation of both mGluR1 and spectrin was observed
cleavage of immunoprecipitated myc-mGluR1α by µ-calpain (30 min), silver staining and Western blots [4]: the density of the 145 kD band that represents the whole-length mGluR1α decreased dose-dependently with calpain treatment
